First the molecules themselves.
B1: P146A (protein)
chain: MQLRNPELHLGCALALRFLALVSWDIPGARALDNGLARTPTMGWLHWERFMCNLDCQEEPDSCISEKLFMEMAELMVSEGWKDAGYEYLCIDDCWMAPQRDSEGRLQADPQRFPHGIRQLANYVHSKGLKLGIYADVGNKTCAGFAGSFGYYDIDAQTFADWGVDLLKFDGCYCDSLENLADGYKHMSLALNRTGRSIVYSCEWPLYMWPFQKPNYTEIRQYCNHWRNFADIDDSWKSIKSILDWTSFNQERIVDVAGPGGWNDPDMLVIGNFGLSWNQQVTQMALWAIMAAPLFMSNDLRHISPQAKALLQDKDVIAINQDPLGKQGYQLRQGDNFEVWERPLSGLAWAVAMINRQEIGGPRSYTIAVASLGKGVACNPACFITQLLPVKRKLGFYEWTSRLRSHINPTGTVLLQLENTMQMSLKDLL
B2: S148G (protein)
chain: B1 chain with A146P, S148G
B3: P146H (protein)
chain: B1 chain with A146H
B4: F149C (protein)
chain: B1 chain with A146P, F149C
B5: G147A (protein)
chain: B1 chain with A146P, G147A
B6: G150E (protein)
chain: B1 chain with A146P, G150E
B7: S148C (protein)
chain: B1 chain with A146P, S148C
B8: Y151C (protein)
chain: B1 chain with A146P, Y151C
B9: P146T (protein)
chain: B1 chain with A146T
B10: D153H (protein)
chain: B1 chain with A146P, D153H
B11: Y152F (protein)
chain: B1 chain with A146P, Y152F
B12: Y151S (protein)
chain: B1 chain with A146P, Y151S
B13: P146L (protein)
chain: B1 chain with A146L
B14: Y152S (protein)
chain: B1 chain with A146P, Y152S
B15: Y151D (protein)
chain: B1 chain with A146P, Y151D
B16: S148T (protein)
chain: B1 chain with A146P, S148T
B17: G150V (protein)
chain: B1 chain with A146P, G150V
B18: D153A (protein)
chain: B1 chain with A146P, D153A

Where a chain is given by its changes, count along the chain named. Numbers in names are those of the source.

The test system of the first test is mutant form of α-Gal A expressed in HEK-293 cells. Briefly: HEK assay (GLP HEK / Migalastat Amenability Assay): α-Gal A activity in lysates of transiently transfected HEK-293 cells incubated with or without 10 μM migalastat. It is filed as cell-based, human. To be noted: 10 μM migalastat versus baseline. A digest of the protocol:
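HEK-293 cells transiently transfected with mutant α-Gal A and incubated with or without 10 μM migalastat; lysate activity given as nmol free 4-MU released per mg protein per hour. Values are mean±SEM.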
For the molecule B1, the “Absolute increase (% WT)” value was determined as 25.4 % WT.

With B2, the “Absolute increase (% WT)” value was found to be 11.8 % WT.

As to B3, the “Absolute increase (% WT)” value is on record as 21.8 % WT.

On to B4, for which the “Absolute increase (% WT)” value came to 13.9 % WT.

Take B5: the “Absolute increase (% WT)” value came out at 3.0 % WT.

With B6, the “Absolute increase (% WT)” value is 12.3 % WT.

Consider B7, for which the “Absolute increase (% WT)” value is reported as 19.3 % WT.

Consider B8, for which the “Absolute increase (% WT)” value is 13.2 % WT.

B9: the “Absolute increase (% WT)” value was 25.0 % WT.

B10: the “Absolute increase (% WT)” value is recorded as 20.5 % WT.

With B11, the “Absolute increase (% WT)” value was 11.4 % WT.

For B12, the “Absolute increase (% WT)” value is given as 22.2 % WT.

On to B13, for which the “Absolute increase (% WT)” value stood at 12.4 % WT.

As to B14, the “Absolute increase (% WT)” value amounted to 19.6 % WT.

Take B15: the “Absolute increase (% WT)” value is recorded as 11.5 % WT.

Turning to B16, the “Absolute increase (% WT)” value came to 15.9 % WT.

For the molecule B17, the “Absolute increase (% WT)” value was found to be 9.2 % WT.

Turning to B18, the “Absolute increase (% WT)” value was found to be 21.6 % WT.

The same test, now with this note: 10 μM migalastat α-Gal A activity relative to baseline.
As to B1, the Relative increase stood at 1.6.

B2 registered a Relative increase of 11.2.

B3 came in with a Relative increase of 3.7.

Turning to B4, the Relative increase is recorded as 1.3.

B6: the Relative increase was 1.2.

For the molecule B7, the Relative increase came to 1.6.

The molecule B8 returned a Relative increase of 1.4.

With B9, the Relative increase is 1.8.

In turn, B10 came in with a Relative increase of 1.3.

B11 yielded a Relative increase of 1.3.

The molecule B12 gave a Relative increase of 1.3.

Consider B13, for which the Relative increase came out at 1.5.

Take B14: the Relative increase is on record as 1.7.

Molecule B15 had a Relative increase of 1.4.

For the molecule B16, the Relative increase was found to be 1.2.

As to B17, the Relative increase was 4.3.

In turn, B18 displayed a Relative increase of 1.4.

The same test, now with this note: 10 μM migalastat, 5 days; percentage of baseline wild-type α-Gal A activity; mean ± SEM.
For B1, the “10 μM migalastat α-Gal A activity (% WT)” value was found to be 64.1 ± 4.4 % WT.

Turning to B2, the “10 μM migalastat α-Gal A activity (% WT)” value came out at 12.9 ± 1 % WT.

In the case of B3, the “10 μM migalastat α-Gal A activity (% WT)” value stood at 30.2 ± 2.1 % WT.

As to B4, the “10 μM migalastat α-Gal A activity (% WT)” value amounted to 60.9 ± 6.4 % WT.

Consider B5, for which the “10 μM migalastat α-Gal A activity (% WT)” value turned out to be 3 ± 0.2 % WT.

In the case of B6, the “10 μM migalastat α-Gal A activity (% WT)” value was determined as 73.8 ± 7 % WT.

As for B7, the “10 μM migalastat α-Gal A activity (% WT)” value is reported as 49.5 ± 2 % WT.

For B8, the “10 μM migalastat α-Gal A activity (% WT)” value came to 45.6 ± 2 % WT.

As for B9, the “10 μM migalastat α-Gal A activity (% WT)” value came to 58.6 ± 2.4 % WT.

As to B10, the “10 μM migalastat α-Gal A activity (% WT)” value worked out at 81 ± 2.1 % WT.

With B11, the “10 μM migalastat α-Gal A activity (% WT)” value was found to be 56.8 ± 2.7 % WT.

Take B12: the “10 μM migalastat α-Gal A activity (% WT)” value was determined as 107 ± 4.9 % WT.

On to B13, for which the “10 μM migalastat α-Gal A activity (% WT)” value worked out at 37.1 ± 2.2 % WT.

For B14, the “10 μM migalastat α-Gal A activity (% WT)” value amounted to 46.7 ± 2.6 % WT.

As for B15, the “10 μM migalastat α-Gal A activity (% WT)” value was 40.8 ± 2.2 % WT.

Consider B16, for which the “10 μM migalastat α-Gal A activity (% WT)” value was determined as 82.4 ± 3.7 % WT.

As for B17, the “10 μM migalastat α-Gal A activity (% WT)” value was 12.1 ± 0.7 % WT.

For B18, the “10 μM migalastat α-Gal A activity (% WT)” value came out at 81.6 ± 2.3 % WT.

Still in this test, the particulars now being: absence of migalastat; mean activity below the limit of detection (<142 nmol/mg/hr).
Turning to B5, the “Baseline α-Gal A activity (nmol/mg/hr)” value is “BLD (“BLD” indicates that the mean α-Gal A activity was below the limit of detection (<142 nmol/mg/hr))”.

Staying with this test, now noted: absence of migalastat; percentage of baseline wild-type α-Gal A activity; mean ± SEM.
On to B1, for which the “Baseline α-Gal A activity (% WT)” value worked out at 38.7 ± 2.5 % WT.

Turning to B2, the “Baseline α-Gal A activity (% WT)” value is recorded as 1.1 ± 0.1 % WT.

Turning to B3, the “Baseline α-Gal A activity (% WT)” value was 8.5 ± 0.7 % WT.

Take B4: the “Baseline α-Gal A activity (% WT)” value is 47 ± 4.4 % WT.

On to B6, for which the “Baseline α-Gal A activity (% WT)” value is 61.5 ± 6.6 % WT.

With B7, the “Baseline α-Gal A activity (% WT)” value is 30.2 ± 2.2 % WT.

In the case of B8, the “Baseline α-Gal A activity (% WT)” value was determined as 32.4 ± 1.5 % WT.

On to B9, for which the “Baseline α-Gal A activity (% WT)” value is on record as 33.6 ± 1.5 % WT.

As to B10, the “Baseline α-Gal A activity (% WT)” value worked out at 60.5 ± 2.2 % WT.

As to B11, the “Baseline α-Gal A activity (% WT)” value was 45.4 ± 2.6 % WT.

Take B12: the “Baseline α-Gal A activity (% WT)” value is given as 84.8 ± 4.2 % WT.

As to B13, the “Baseline α-Gal A activity (% WT)” value came out at 24.7 ± 1.8 % WT.

B14: the “Baseline α-Gal A activity (% WT)” value is given as 27.1 ± 1.7 % WT.

With B15, the “Baseline α-Gal A activity (% WT)” value was determined as 29.3 ± 1.7 % WT.

In the case of B16, the “Baseline α-Gal A activity (% WT)” value came to 66.5 ± 3.8 % WT.

In the case of B17, the “Baseline α-Gal A activity (% WT)” value was 2.9 ± 0.1 % WT.

With B18, the “Baseline α-Gal A activity (% WT)” value is 60.1 ± 2.4 % WT.

The test is the same for the next values; noted with them: lysates of HEK-293 cells transfected with the mutant form, incubated 5 days in the absence of migalastat; mean ± SEM.
With B1, the “Baseline α-Gal A activity” value was found to be 15393 ± 1271 nmol/mg/h.

Consider B2, for which the “Baseline α-Gal A activity” value was determined as 435 ± 55 nmol/mg/h.

B3: the “Baseline α-Gal A activity” value turned out to be 3220 ± 211 nmol/mg/h.

Turning to B4, the “Baseline α-Gal A activity” value stood at 15198 ± 1188 nmol/mg/h.

Regarding B6, the “Baseline α-Gal A activity” value stood at 18804 ± 1070 nmol/mg/h.

Consider B7, for which the “Baseline α-Gal A activity” value came to 11927 ± 1020 nmol/mg/h.

Turning to B8, the “Baseline α-Gal A activity” value was 11271 ± 579 nmol/mg/h.

As for B9, the “Baseline α-Gal A activity” value was 13711 ± 1154 nmol/mg/h.

On to B10, for which the “Baseline α-Gal A activity” value was 23578 ± 1741 nmol/mg/h.

Consider B11, for which the “Baseline α-Gal A activity” value came out at 18675 ± 907 nmol/mg/h.

For the molecule B12, the “Baseline α-Gal A activity” value worked out at 30047 ± 1943 nmol/mg/h.

B13: the “Baseline α-Gal A activity” value came out at 9940 ± 899 nmol/mg/h.

As for B14, the “Baseline α-Gal A activity” value came to 9917 ± 917 nmol/mg/h.

Turning to B15, the “Baseline α-Gal A activity” value is 10673 ± 604 nmol/mg/h.

In the case of B16, the “Baseline α-Gal A activity” value came out at 24827 ± 1221 nmol/mg/h.

Consider B17, for which the “Baseline α-Gal A activity” value came to 1080 ± 63 nmol/mg/h.

For the molecule B18, the “Baseline α-Gal A activity” value was found to be 22606 ± 1445 nmol/mg/h.

The same test, now with this note: lysates of HEK-293 cells transfected with the mutant form, incubated 5 days with 10 μM migalastat; mean ± SEM.
For the molecule B1, the “10 μM migalastat α-Gal A activity” value is 25029 ± 1628 nmol/mg/h.

Consider B2, for which the “10 μM migalastat α-Gal A activity” value worked out at 4879 ± 263 nmol/mg/h.

For B3, the “10 μM migalastat α-Gal A activity” value came to 11903 ± 844 nmol/mg/h.

As to B4, the “10 μM migalastat α-Gal A activity” value came to 19032 ± 1272 nmol/mg/h.

As for B5, the “10 μM migalastat α-Gal A activity” value came out at 1159 ± 74 nmol/mg/h.

Take B6: the “10 μM migalastat α-Gal A activity” value was 22710 ± 1059 nmol/mg/h.

As to B7, the “10 μM migalastat α-Gal A activity” value is 19343 ± 919 nmol/mg/h.

Regarding B8, the “10 μM migalastat α-Gal A activity” value came out at 15859 ± 752 nmol/mg/h.

Turning to B9, the “10 μM migalastat α-Gal A activity” value turned out to be 24123 ± 2081 nmol/mg/h.

Take B10: the “10 μM migalastat α-Gal A activity” value worked out at 31052 ± 1774 nmol/mg/h.

Turning to B11, the “10 μM migalastat α-Gal A activity” value amounted to 23612 ± 1095 nmol/mg/h.

Regarding B12, the “10 μM migalastat α-Gal A activity” value is 37527 ± 2003 nmol/mg/h.

Take B13: the “10 μM migalastat α-Gal A activity” value came out at 14540 ± 903 nmol/mg/h.

On to B14, for which the “10 μM migalastat α-Gal A activity” value was found to be 16642 ± 1218 nmol/mg/h.

As to B15, the “10 μM migalastat α-Gal A activity” value was 15196 ± 1025 nmol/mg/h.

As to B16, the “10 μM migalastat α-Gal A activity” value was 30620 ± 813 nmol/mg/h.

In the case of B17, the “10 μM migalastat α-Gal A activity” value was 4639 ± 361 nmol/mg/h.

Turning to B18, the “10 μM migalastat α-Gal A activity” value turned out to be 30854 ± 1997 nmol/mg/h.

These data come from patent US11833164B2, “Methods of treating Fabry disease in patients having a mutation in the GLA gene” (Amicus Therapeutics, Inc., priority 2019, dated 2023).
